From the supplement of paper PMC9170038

System: MS2 coat protein
Assay: apparent KD of MS2 coat protein; designed switch direction (-1 OFF switch, 1 ON switch): -1; higher = weaker reporter binding
Method in brief: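 An oligonucleotide input, 200 uM small-molecule ligand, or no input was present during titration of SNAP-549-labelled MS2 coat protein, which was doubled from 0.7 or 1.5 nM to 3 µM. Designed RNA switches had been transcribed on Illumina chips by stalled E. coli RNA polymerase. Apparent KD per design is the median over clusters of curves fitted to normalised cluster fluorescence.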

[1] = input ligand: microRNA oligo, concentration not stated
[2] = Eterna round: R95, input ligand: microRNA oligo, concentration not stated
[3] = Eterna round: R95, input ligand: FMN 200 uM
[4] = Eterna round: R95, input ligand: none

UUAUUAUAUGUAGGAUAUGCAUAUUGUUAUUAUGCAGAAGGACAUGAGGAUCACCCAUGUAUAUUAUUAUUAUAUAUUAUAUAU [Title] (Eterna round: R96, puzzle: Exclusion NG 1)
apparent KD of MS2 coat protein [1]: 23.3 nM

UUCAGUCAUCCUUAUUGUUACAUGAGGAUCACCCAUGUUUGUUUAAUUAAGUUUUGUAAGUUUGUUGUUCGUUUUAU [JR_STOV1_v2_Sub074] (Eterna round: R97, puzzle: Sensor, turn-off variant 1)
apparent KD of MS2 coat protein (input ligand: FMN 200 uM): 154 nM
apparent KD of MS2 coat protein (input ligand: none): 173 nM

UUCAUGUGAGGAUAUAGUACUCUUUCUAUUAUUAUUGAGUAUUAGAAGGCACAUGAGGAUCACCCAUGUAGUAC [Ex4 - 3 - 41] (puzzle: Exclusion 4)
apparent KD of MS2 coat protein [2]: 28.1 nM

UUCCCACAUGAGGAUCACCCAUGUGAGGAUAUGGGCGGCGCCGCAAAAGCGGCGCCGCCCAGAAGGCGCAUGAU [Malcxlusion 8 - Jieux - Exclusion 1] (Eterna round: R97, puzzle: Exclusion 1)
apparent KD of MS2 coat protein (input ligand: FMN 200 uM): 21.6 nM
apparent KD of MS2 coat protein (input ligand: none): 18.4 nM

UUCCUCUCUUCUCCGUCUCACAUGAGGAUCACCCAUGUAACAUAGGAUAUGCUUGGUAUUUAAAUGCAGAAGGAUGUUAGUAUU [JR_ExcNG3_Sub081] (Eterna round: R96, puzzle: Exclusion NG 3)
apparent KD of MS2 coat protein (input ligand: FMN 200 uM): 76.6 nM
apparent KD of MS2 coat protein [1]: 21.1 nM
apparent KD of MS2 coat protein (input ligand: none): 29.5 nM

UUCCUCUCUUCUUUGUCUCACAUGAGGAUCACCCAUGUAACAUAGGAUAUGCUUGGUAUUUAUAUGCAGAAGGAUGUUAGUAUU [JR_ExcNG3_Sub083] (Eterna round: R96, puzzle: Exclusion NG 3)
apparent KD of MS2 coat protein (input ligand: FMN 200 uM): 60.8 nM
apparent KD of MS2 coat protein [1]: 19 nM
apparent KD of MS2 coat protein (input ligand: none): 25.7 nM

UUCUAACGAGGAUAUCGAUGGUGGAACAUGAGGAUCACCCAUGUAUGAGAUAUUGUAGUUCGAGAAGGCGUUCAGU [JR_E5_Sub057] (Eterna round: R96, puzzle: Exclusion 5)
apparent KD of MS2 coat protein (input ligand: FMN 200 uM): 35.9 nM
apparent KD of MS2 coat protein [1]: 32.3 nM
apparent KD of MS2 coat protein (input ligand: none): 48.6 nM

UUCUAACGAGGAUAUCGAUGGUGGAACAUGAGGAUCACCCAUGUAUGAGAUAUUGUAGUUCGAGAAGGCGUUCAGU [JR_E5_Sub057] (puzzle: Exclusion 5)
apparent KD of MS2 coat protein [2]: 36.6 nM

UUGAACCCGGUAGGAUAUAUUGUGGGCAAACAUGGAACAACAUGAGGAUCACCCAUGUAAUUUAGGUAGAAGGGCCAAAAGAUU [Excl-NG2-LRO06] (Eterna round: R96, puzzle: Exclusion NG 2)
apparent KD of MS2 coat protein (input ligand: FMN 200 uM): 72.1 nM
apparent KD of MS2 coat protein [1]: 61 nM
apparent KD of MS2 coat protein (input ligand: none): 69.9 nM

UUGAAGUCAUCAGGAUAUAGUAUUAAAGACAUUUAUUUUUUCAUACAUGAGGAUCACCCAUGUCGCUAGAAGGGAUUAUAGAUU [JR_ExcNG2_Sub079] (Eterna round: R96, puzzle: Exclusion NG 2)
apparent KD of MS2 coat protein [1]: 38.4 nM

UUGACGGCAGGAUAUACAUGAGGAUCACCCAUGUAAAUUUUUCGUUUAACUUGAAUGUGUAGAAGGGCCAACUU [Ex3 #73] (Eterna round: R97, puzzle: Exclusion 3)
apparent KD of MS2 coat protein (input ligand: FMN 200 uM): 18.6 nM
apparent KD of MS2 coat protein (input ligand: none): 16.8 nM

UUGACGUCGUCAGGAUAUAGUUUUAAUGUCAUGCUUUUGUUUUUACAUGAGGAUCACCCAUGUCGCUAGAAGGGACUAAAGAUU [JR_ExcNG2_Sub012] (Eterna round: R96, puzzle: Exclusion NG 2)
apparent KD of MS2 coat protein (input ligand: FMN 200 uM): 33.5 nM
apparent KD of MS2 coat protein [1]: 32.8 nM
apparent KD of MS2 coat protein (input ligand: none): 35 nM

UUGAUAUGAGGAUAUUGCUAAGUCGACAUGAGGAUCACCCAUGUGAAGGAAUGUUUAUUGCAAGAAGGCGUCGCGG [Eternabot (L1) Solution 10] (Eterna round: R97, puzzle: Exclusion 5)
apparent KD of MS2 coat protein (input ligand: FMN 200 uM): 49.5 nM
apparent KD of MS2 coat protein (input ligand: none): 60.5 nM

UUGAUGUGAGGAUAUAUAUGGUGGUUUUUUUAUUUUUUAUUACUUGAGGAUCACCCAAGUAGAAGGCGCUACGU [JR_Ex2_Sub069] (Eterna round: R97, puzzle: Exclusion 2)
apparent KD of MS2 coat protein (input ligand: FMN 200 uM): 29.4 nM
apparent KD of MS2 coat protein (input ligand: none): 39.3 nM

UUGCCUAAUGUUAGGAUAUGCGACGGGUGACCGUUGCAGAAGGAACAUGAGGAUCACCCAUGUUUAAUAAAAUC [JL-BMX4-4.43 ViennaUCT mod] (Eterna round: R97, puzzle: Brourd's mod of Exclusion 4)
apparent KD of MS2 coat protein (input ligand: FMN 200 uM): 69.3 nM
apparent KD of MS2 coat protein (input ligand: none): 14.9 nM

UUGCGGCAAGGAUAUACAUGAGGAUCACCCAUGUAGUAUUUGGUGCUGGCGAGCUGGUGUAGAAGGUGCACGCA [EX3 B.3] (Eterna round: R97, puzzle: Exclusion 3)
apparent KD of MS2 coat protein (input ligand: FMN 200 uM): 21.2 nM
apparent KD of MS2 coat protein (input ligand: none): 16.1 nM

UUGGCAGGUUUUUUGCUCGACAUGAGGAUCACCCAUGUUGCGUGGGUUGUGUGUGUGCGGUGUAUAUAUAUGGUCCU [-24.8, -48.1 kcal, A 14%] (Eterna round: R97, puzzle: Sensor, turn-off variant 1)
apparent KD of MS2 coat protein (input ligand: FMN 200 uM): 480 nM
apparent KD of MS2 coat protein (input ligand: none): 644 nM

UUGUAACAUGAGGAUCACCCAUGUGAGGAUAUGGUUAAGUAAUGUAAUGUAAAGUAAUCCAGAAGGCACAAGUU [1st #23] (Eterna round: R97, puzzle: Exclusion 1)
apparent KD of MS2 coat protein (input ligand: FMN 200 uM): 70.3 nM
apparent KD of MS2 coat protein (input ligand: none): 78.3 nM

UUGUACAUAGGAUAUAGUUGUUUGUACAUGAGGAUCACCCAUGUUAUGUAUCUUUUGCUUCUAGAAGGAUGUUCUU [JR_E5_Sub005] (puzzle: Exclusion 5)
apparent KD of MS2 coat protein [2]: 32.2 nM

UUGUACCGGUGAGGAUAUUUUUAAUAGAGCUUUAUGAUAUACAUGAGGAUCACCCAUGUUACUUUAAAGAAGGCAUCGGAUUAU [JL JR Sub091 mod 3] (Eterna round: R96, puzzle: Exclusion NG 2)
apparent KD of MS2 coat protein (input ligand: FMN 200 uM): 14.9 nM
apparent KD of MS2 coat protein [1]: 12 nM
apparent KD of MS2 coat protein (input ligand: none): 20.6 nM

UUGUCACAUGAGGAUCACCCAUGUGAGGAUAUGGCCCGCCCGGCGUGUGCUGGUUUUGUCAGAAGGCGCGUGGG [salish99_ex1_r4_028] (Eterna round: R97, puzzle: Exclusion 1)
apparent KD of MS2 coat protein (input ligand: FMN 200 uM): 24.6 nM
apparent KD of MS2 coat protein (input ligand: none): 19.6 nM

UUGUUAUAUGAAGGAUAUACUUAACAUGAGGAUCACCCAUGUGGUGUUGUGAGUGAGUGAGUUUAGUAGAAGGUCAAUGAUUUU [JMF's solution 73] (Eterna round: R96, puzzle: Exclusion NG 2)
apparent KD of MS2 coat protein (input ligand: FMN 200 uM): 513 nM
apparent KD of MS2 coat protein [1]: 309 nM
apparent KD of MS2 coat protein (input ligand: none): 344 nM

UUGUUCCGUGUAGGAUAUUGGCCUCCCUCGGGCCGAGAAGGACAUGAGGAUCACCCAUGUAUGCUAUUAUCGCGCGUGGCGCAC [Design 94] (Eterna round: R96, puzzle: Exclusion NG 1)
apparent KD of MS2 coat protein (input ligand: FMN 200 uM): 330 nM
apparent KD of MS2 coat protein [1]: 23.1 nM
apparent KD of MS2 coat protein (input ligand: none): 25.2 nM

UUGUUGUAUGUAGGAUAUGCAUAUUGUUAUUAUGCAGAAGGACAUGAGGAUCACCCAUGUAUAUUAUUAUUAUAUAUUAUAUAU [Title] (Eterna round: R96, puzzle: Exclusion NG 1)
apparent KD of MS2 coat protein [1]: 20.9 nM

UUUAAAACAUAGGAUAUCGAAUAAAUCAUUUAACGAGAAGGAUGAACAUGAGGAUCACCCAUGUGGUAUCAUGG [Mat - Exclusion 6 - JL Mod - D20] (puzzle: Exclusion 6)
apparent KD of MS2 coat protein [3]: 219 nM
apparent KD of MS2 coat protein [2]: 183 nM
apparent KD of MS2 coat protein [4]: 207 nM

UUUAAGUCAGGAUAUCGUUAAUUUAAUAAAUUAAUUUAAUUCGAGAAGGGACAUGAGGAUCACCCAUGUAAUUU [Ex4 #2] (Eterna round: R97, puzzle: Exclusion 4)
apparent KD of MS2 coat protein (input ligand: FMN 200 uM): 33.5 nM
apparent KD of MS2 coat protein (input ligand: none): 28 nM

UUUAAUGGAAUUAAGAUCACAUGAGGAUCACCCAUGUAUAUAUAGGAUAUCAGCUCGUGUAGAGCUGAGAAGGAUAUAUACAUA [ExNG3/6-B3] (Eterna round: R96, puzzle: Exclusion NG 3)
apparent KD of MS2 coat protein (input ligand: FMN 200 uM): 208 nM
apparent KD of MS2 coat protein [1]: 344 nM
apparent KD of MS2 coat protein (input ligand: none): 185 nM

UUUAAUUGUGACAUGGGUGACAUGAGGAUCACCCAUGUCACAAGCUUUUUGUUCGUCUUAUAAUUAACCCAUGUCAC [Stov1/13-B1] (Eterna round: R97, puzzle: Sensor, turn-off variant 1)
apparent KD of MS2 coat protein (input ligand: FMN 200 uM): 37.8 nM
apparent KD of MS2 coat protein (input ligand: none): 123 nM

UUUAAUUUAAUUAAGAUCACAUGAGGAUCACCCAUGUAUAUAUAGGAUAUCAGCUCGUUUAGAGCUGAGAAGGAUAUAUACAUA [ExNG3/4-A2] (Eterna round: R96, puzzle: Exclusion NG 3)
apparent KD of MS2 coat protein (input ligand: FMN 200 uM): 433 nM
apparent KD of MS2 coat protein [1]: 40.1 nM
apparent KD of MS2 coat protein (input ligand: none): 58.2 nM

UUUAAUUUUUUUUUUUUACAAGCUUUUUGCUCGUCUUAUACAUGAGGAUCACCCAUGUAAGUGGGAGGUAAAUUAUC [JMF 76] (puzzle: Sensor v3, turn-off variant 2)
apparent KD of MS2 coat protein [3]: 54.3 nM
apparent KD of MS2 coat protein [2]: 201 nM
apparent KD of MS2 coat protein [4]: 102 nM

UUUAAUUUUUUUUUUUUACAAGCUUUUUGCUCGUCUUAUACAUGAGGAUCACCCAUGUAGGUGAAGGGUAAAUUAUC [JMF 81] (puzzle: Sensor v3, turn-off variant 2)
apparent KD of MS2 coat protein [3]: 17.9 nM
apparent KD of MS2 coat protein [2]: 77.7 nM
apparent KD of MS2 coat protein [4]: 15.8 nM

UUUAAUUUUUUUUUUUUACAAGCUUUUUGCUCGUCUUAUACAUGAGGAUCACCCAUGUGAAUGGGAAGUAAAUUAUC [JMF 51] (puzzle: Sensor v3, turn-off variant 2)
apparent KD of MS2 coat protein [3]: 103 nM
apparent KD of MS2 coat protein [2]: 183 nM
apparent KD of MS2 coat protein [4]: 148 nM

UUUAAUUUUUUUUUUUUACAAGCUUUUUGCUCGUCUUAUACAUGAGGAUCACCCAUGUGGGUAGAAAAUAAAUUAUC [JMF 91] (puzzle: Sensor v3, turn-off variant 2)
apparent KD of MS2 coat protein [3]: 44.1 nM
apparent KD of MS2 coat protein [2]: 65.2 nM
apparent KD of MS2 coat protein [4]: 48.7 nM

UUUAAUUUUUUUUUUUUACAAGCUUUUUGCUCGUCUUAUACAUGAGGAUCACCCAUGUGGGUAGAAGGUAAAUUAUC [JMF 66] (puzzle: Sensor v3, turn-off variant 2)
apparent KD of MS2 coat protein [3]: 24.3 nM
apparent KD of MS2 coat protein [2]: 64.9 nM
apparent KD of MS2 coat protein [4]: 22.4 nM
